Tests used:
[1] = biological target: bovine serum albumin, P02769
[2] = biological target: C. muridarum Major Outer Membrane Protein (MOMP)

Chain of bovine serum albumin, P02769 (P02769 25-607): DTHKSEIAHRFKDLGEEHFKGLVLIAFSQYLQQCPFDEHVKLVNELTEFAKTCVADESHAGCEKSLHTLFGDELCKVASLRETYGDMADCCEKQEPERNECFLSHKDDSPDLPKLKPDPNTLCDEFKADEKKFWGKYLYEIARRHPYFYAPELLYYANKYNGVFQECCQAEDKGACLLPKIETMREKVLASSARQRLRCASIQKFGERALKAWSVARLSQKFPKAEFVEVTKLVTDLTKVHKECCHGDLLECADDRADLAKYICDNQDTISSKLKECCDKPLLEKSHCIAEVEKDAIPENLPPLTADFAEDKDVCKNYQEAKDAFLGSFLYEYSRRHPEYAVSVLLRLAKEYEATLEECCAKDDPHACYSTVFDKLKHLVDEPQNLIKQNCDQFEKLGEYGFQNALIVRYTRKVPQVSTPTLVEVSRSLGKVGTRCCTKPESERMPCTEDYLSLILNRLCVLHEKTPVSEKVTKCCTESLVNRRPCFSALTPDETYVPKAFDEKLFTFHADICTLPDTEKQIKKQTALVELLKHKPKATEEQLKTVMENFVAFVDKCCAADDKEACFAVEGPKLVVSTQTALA

B1: wild-type C. trachomatis HtrA (CT823) (protein)
chain: SPMLGYSASKKDSKADICLAVSSGDQEVSQEDLLKEVSRGFSRVAAKATPGVVYIENFPKTGNQAIASPGNKRGFQENPFDYFNDEFFNRFFGLPSHREQQRPQQRDAVRGTGFIVSEDGYVVTNHHVVEDAGKIHVTLHDGQKYTAKIVGLDPKTDLAVIKIQAEKLPFLTFGNSDQLQIGDWAIAIGNPFGLQATVTVGVISAKGRNQLHIVDFEDFIQTDAAINPGNSGGPLLNINGQVIGVNTAIVSGSGGYIGIGFAIPSLMAKRVIDQLISDGQVTRGFLGVTLQPIDSELATCYKLEKVYGALVTDVVKGSPAEKAGLRQEDVIVAYNGKEVESLSALRNAISLMMPGTRVVLKIVREGKTIEIPVTVTQIPTEDGVSALQKMGVRVQNITPEICKKLGLAADTRGILVVAVEAGSPAASAGVAPGQLILAVNRQRVASVEELNQVLKNSKGENVLLMVSQGDVVRFIVLKSDE
protease digestion of BSA, overnight at 37 C, SDS-PAGE/Coomassie, with DTT [1]: strong protease activity in the presence of the reducing agent DTT (dithiothreitol) as shown by degradation of the intact BSA protein

B2: wild type C. muridarum HtrA (TC0210) (protein)
chain: SPMLGYSAPKKDSSTGICLAASQSDRELSQEDLLKEVSRGFSKVAAQATPGVVYIENFPKTGSQAIASPGNKRGFQENPFDYFNDEFFNRFFGLPSHREQPRPQQRDAVRGTGFIVSEDGYVVTNHHVVEDAGKIHVTLHDGQKYTAKIIGLDPKTDLAVIKIQAKNLPFLTFGNSDQLQIGDWSIAIGNPFGLQATVTVGVISAKGRNQLHIVDFEDFIQTDAAINPGNSGGPLLNIDGQVIGVNTAIVSGSGGYIGIGFAIPSLMAKRVIDQLISDGQVTRGFLGVTLQPIDSELAACYKLEKVYGALITDVVKGSPAEKAGLRQEDVIVAYNGKEVESLSALRNAISLMMPGTRVVLKVVREGKFIEIPVTVTQIPAEDGVSALQKMGVRVQNLTPEICKKLGLASDTRGIFVVSVEAGSPAASAGVVPGQLILAVNRQRVSSVEELNQVLKNAKGENVLLMVSQGEVIRFVVLKSDE
protease digestion of MOMP, SDS-PAGE/Coomassie, with DTT [2]: completely degrades MOMP protein in the presence of DTT (lane 7)
protease digestion of MOMP, SDS-PAGE/Coomassie, without DTT [2]: strongly degrades MOMP protein in the absence of DTT (lane 5)
protease digestion of BSA, SDS-PAGE/Coomassie, with DTT [1]: possesses a strong protease activity as it degrades the BSA substrate (lane 5)

B3: TC0210-(H143R) (protein)
chain: SPMLGYSAPKKDSSTGICLAASQSDRELSQEDLLKEVSRGFSKVAAQATPGVVYIENFPKTGSQAIASPGNKRGFQENPFDYFNDEFFNRFFGLPSHREQPRPQQRDAVRGTGFIVSEDGYVVTNHRVVEDAGKIHVTLHDGQKYTAKIIGLDPKTDLAVIKIQAKNLPFLTFGNSDQLQIGDWSIAIGNPFGLQATVTVGVISAKGRNQLHIVDFEDFIQTDAAINPGNSGGPLLNIDGQVIGVNTAIVSGSGGYIGIGFAIPSLMAKRVIDQLISDGQVTRGFLGVTLQPIDSELAACYKLEKVYGALITDVVKGSPAEKAGLRQEDVIVAYNGKEVESLSALRNAISLMMPGTRVVLKVVREGKFIEIPVTVTQIPAEDGVSALQKMGVRVQNLTPEICKKLGLASDTRGIFVVSVEAGSPAASAGVVPGQLILAVNRQRVSSVEELNQVLKNAKGENVLLMVSQGEVIRFVVLKSDE
protease digestion of MOMP, SDS-PAGE/Coomassie, with and without DTT [2]: does not degrade the MOMP protein, either in the presence of DTT (lane 8) or in the absence of DTT (lane 6)
protease digestion of BSA, SDS-PAGE/Coomassie, with DTT [1]: does not degrade the BSA substrate (lane 3)

Reference: patent US20110110857
